Laboratory results reported in the emibetuzumab library of Makowski et al. (2022).

B1: VH:VL chains; a variant is named by its letters at X, in order (parent)
chain 1: QVQLVQSGAEVKKPGASVKVSCKASGYTFTDYXMHWVRQAPGQGLEWMGXVNPNXXXTTYNQKFEGRVTMTTDTSTSTAYMELRSLRSDDTAVYYCARXNXLDXWGQGTTVTVSS
chain 2: DIQMTQSPSSLSASVGDRVTITCSVSSSVSSIYLHWYQQKPGKAPKLLIYSTSNLASGVPSRFSGSGSGTDFTLTISSLQPEDFATYYCQVYSGYPLTFGGGTKVEIK

Variants of: B1
Assay: yeast display scFab, FACS + sequencing
Procedure, shortened: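 The non-specific binding call was based on sorted and sequenced yeast displaying a heavy-chain CDR mutant scFab library. Labelling used anti-Myc with biotinylated ovalbumin (260 μg/mL in PBSB, 3 h, room temperature) or soluble membrane proteins (130 μg/mL, 20 min on ice), and FACS collected the top 25% and bottom 10% of binders in two replicates. Positive meant present in ≥3 of 4 pooled positive samples and in no negatives, and negative meant the converse.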
In the case of YRGKGAVS, the non-specific binding call is reported as “binds”.
In the case of YRGKGAVF, the non-specific binding call is reported as “binds”.
With FRGRASAD the non-specific binding call was “binds”.
With VRGGDAVY chain 1 G44D the non-specific binding call was “no binding”.
For YRGGGYGF, the non-specific binding call was “binds”.
For FRGGSAGD, the non-specific binding call was “binds”.
In the case of YRGKGSGS, the non-specific binding call is reported as “binds”.
For YRGKGSGF, the non-specific binding call was “binds”.
In the case of DRGGDSLD, the non-specific binding call is reported as “no binding”.
With YRGKDAAY the non-specific binding call was “binds”.
For YRGKDASD, the non-specific binding call was “binds”.
With VRGKAFVV the non-specific binding call was “binds”.
For ARGGDDGA, the non-specific binding call was “no binding”.
For VRGGDAAS, the non-specific binding call was “no binding”.
For YRGGGVVD, the non-specific binding call was “binds”.
In the case of VRGGGDWV, the non-specific binding call is reported as “no binding”.
In the case of YRGGDDSV, the non-specific binding call is reported as “no binding”.
In the case of YRGGDDSS, the non-specific binding call is reported as “no binding”.
In the case of VRGGGSAA, the non-specific binding call is reported as “binds”.
With FRGKSAAA the non-specific binding call was “binds”.
With VRGKGSSD the non-specific binding call was “no binding”.
In the case of VRGKGSSS, the non-specific binding call is reported as “binds”.
For VRGRAAGD, the non-specific binding call was “no binding”.
In the case of DRGGSSAA, the non-specific binding call is reported as “no binding”.
With YRGKGVGV the non-specific binding call was “binds”.
In the case of YRGKGVGD, the non-specific binding call is reported as “binds”.
In the case of YRGKSALA, the non-specific binding call is reported as “binds”.
With YRGGDYLV the non-specific binding call was “no binding”.
For YRGRDDLA, the non-specific binding call was “no binding”.
For YRGGGSVF, the non-specific binding call was “binds”.
In the case of YRGRDAGF, the non-specific binding call is reported as “binds”.
In the case of VRGGDDWF, the non-specific binding call is reported as “no binding”.
In the case of VRGGDDWA, the non-specific binding call is reported as “no binding”.
In the case of FRGKGSAV, the non-specific binding call is reported as “binds”.
For FRGKGSAD, the non-specific binding call was “binds”.
For VRGGSDVD, the non-specific binding call was “no binding”.
In the case of VRGGSDVA, the non-specific binding call is reported as “no binding”.
In the case of ARGKGSGD, the non-specific binding call is reported as “binds”.
With FRGKGASD the non-specific binding call was “binds”.
For FRGKGASS, the non-specific binding call was “binds”.
For FRGKGASV, the non-specific binding call was “binds”.
For DRGRDDVA, the non-specific binding call was “no binding”.
For DRGRDDVD, the non-specific binding call was “no binding”.
With DRGRDDVV the non-specific binding call was “no binding”.
In the case of DRGRDDVF, the non-specific binding call is reported as “no binding”.
For YRGKSSGF, the non-specific binding call was “binds”.
In the case of FRGKGAGS, the non-specific binding call is reported as “binds”.
With FRGKGAGA the non-specific binding call was “binds”.
In the case of FRGKGAGY, the non-specific binding call is reported as “binds”.
For YRGKDVGV, the non-specific binding call was “binds”.
In the case of YRGKGYAA, the non-specific binding call is reported as “binds”.
For SRGKGALD, the non-specific binding call was “binds”.
In the case of YRGKDSVD, the non-specific binding call is reported as “binds”.
With YRGKSDGS the non-specific binding call was “binds”.
For DRGGDDLV, the non-specific binding call was “no binding”.
With DRGRDDAA the non-specific binding call was “no binding”.
For YRGRDALV, the non-specific binding call was “binds”.
With FRGGGAVA the non-specific binding call was “binds”.
For FRGGGAVS, the non-specific binding call was “binds”.
For VRGRDDGV, the non-specific binding call was “no binding”.
With YRGKASGD the non-specific binding call was “binds”.
With DRGGDDWY the non-specific binding call was “no binding”.
With DRGGDDWV the non-specific binding call was “no binding”.
In the case of YRGGGALS, the non-specific binding call is reported as “binds”.
With YRGGTSVD the non-specific binding call was “binds”.
With VRGKDSLD the non-specific binding call was “no binding”.
With SRGGDDVA the non-specific binding call was “no binding”.
For FRGKDASA, the non-specific binding call was “no binding”.
With YRGKGSAD the non-specific binding call was “binds”.
In the case of YRGKGSAV, the non-specific binding call is reported as “binds”.
For YRGKGSAA, the non-specific binding call was “binds”.
In the case of FRGRASLS, the non-specific binding call is reported as “binds”.
For VRGRDAVS, the non-specific binding call was “binds”.
For DRGRDDLV, the non-specific binding call was “no binding”.
With YRGKGFGS the non-specific binding call was “binds”.
In the case of FRGGSVGY, the non-specific binding call is reported as “binds”.
With YRGGGFAD the non-specific binding call was “binds”.
In the case of YRGGSDVA, the non-specific binding call is reported as “no binding”.
In the case of ARGRDAWV, the non-specific binding call is reported as “binds”.
With VRGGGDAA the non-specific binding call was “no binding”.
For YRGGGYLV, the non-specific binding call was “no binding”.
In the case of YRGGGDVS, the non-specific binding call is reported as “binds”.
In the case of SRGGGALD, the non-specific binding call is reported as “no binding”.
In the case of FRGGGVGV, the non-specific binding call is reported as “binds”.
With YRGGAAWY the non-specific binding call was “binds”.
In the case of YRGGAAWD, the non-specific binding call is reported as “binds”.
With FRGGSSAA the non-specific binding call was “binds”.
For YRGGASAA, the non-specific binding call was “binds”.
In the case of VRGGDAVS, the non-specific binding call is reported as “no binding”.
For VRGGDAVA, the non-specific binding call was “no binding”.
With SRGKSFGS the non-specific binding call was “binds”.
For FRGGGSGV, the non-specific binding call was “binds”.
In the case of FRGGGSGF, the non-specific binding call is reported as “binds”.
With FRGGGSGS the non-specific binding call was “binds”.
In the case of DRGGDAVA, the non-specific binding call is reported as “no binding”.
In the case of DRGGDAVV, the non-specific binding call is reported as “no binding”.
With YRGKGAGF the non-specific binding call was “binds”.
For YRGKGAGY, the non-specific binding call was “binds”.
With YRGKAFGV the non-specific binding call was “binds”.
For FRGGASSD, the non-specific binding call was “binds”.
With FRGKGSGF the non-specific binding call was “binds”.
In the case of FRGKGSGA, the non-specific binding call is reported as “binds”.
With FRGKGSGD the non-specific binding call was “binds”.
With FRGKGSGV the non-specific binding call was “binds”.
For YRGKASWD, the non-specific binding call was “binds”.
For YRGKSAAV, the non-specific binding call was “binds”.
In the case of DRGGDDVV, the non-specific binding call is reported as “no binding”.
With DRGGDDVY the non-specific binding call was “no binding”.
In the case of DRGGDDVD, the non-specific binding call is reported as “no binding”.
For FRGKGSWD, the non-specific binding call was “binds”.
In the case of FRGKGAAA, the non-specific binding call is reported as “binds”.
For FRGKGAAS, the non-specific binding call was “binds”.
With FRGKGAAV the non-specific binding call was “binds”.
For DRGGDDGS, the non-specific binding call was “no binding”.
With DRGRDAWF the non-specific binding call was “no binding”.
For DRGRDAWS, the non-specific binding call was “no binding”.
For FRGGSSGS, the non-specific binding call was “binds”.
For FRGGSSGV, the non-specific binding call was “binds”.
In the case of YRGKGSLA, the non-specific binding call is reported as “binds”.
In the case of YRGRDDGD, the non-specific binding call is reported as “no binding”.
In the case of YRGGDYSV, the non-specific binding call is reported as “no binding”.
